In patent US11814435B2, “Therapeutic antibodies and their uses” (PFIZER INC., priority 2015, dated 2023):

Assays:
[1] = target: hCD3 (human CD3) (Homo sapiens, UniProt P07766); assay: Kinetics and affinity of hCD3/human IgG interactions by SPR (Bio-Rad Proteon XPR36); type: binding; details: 37° C.
Procedure: All experiments were performed on a Bio-Rad Proteon XPR36 surface Plasmon resonance biosensor (Bio-Rad, Hercules, Calif.). An array of anti-CD3 antibodies was prepared using an amine-coupling method on a Bio-Rad GLC Sensor Chip similar to that described in Abdiche, et al., Anal. Biochem. 411, 139-151 (2011). The analysis temperature for the immobilization was 25° C. and the running buffer was HBS-T+(10 mM HEPES, 150 mM NaCl, 0.05% Tween-20, pH 7.4). Channels were activated in the analyte (horizontal) direction by injecting a mixture of 1 mM ECD and 0.25 mM NHS for 3 minutes at a flow rate of 30 μL/min. IgGs were immobilized on the activated spots by injecting them in the ligand (vertical) direction at 20 μg/mL in 10 mM Acetate pH 4.5 buffer for 1.5 minutes at […]. The activated surfaces were blocked by injecting 1M ethanolamine, pH 8.5 in the analyte direction for 3 minutes at 30 μL/min.
The analysis temperature for the hCD3 binding analysis was 37° C. or 25° C. in a running buffer of HBS-T+, supplemented with 1 mg/mL BSA. A kinetic titration method was employed for the interaction analysis as described in Abdiche, et al. The hCD3 (human CD3) analyte was injected in the analyte direction using a series of injections from low to high concentration. The concentrations used were 0.08 nM, 0.4 nM, 2 nM, 10 nM and 50 nM (a 5-membered series, with a 5-fold dilution factor and top concentration of 50 nM). The association time for a given analyte dilution was two minutes. Immediately after the 50 nM hCD3 injection, dissociation was monitored for 2 hours. Prior to the hCD3 analyte injections, buffer was injected 5 times using the same association and dissociation times at the hCD3 analyte cycles to prepare a buffer blank sensorgram for double-referencing purposes (double referencing as described in Myszka, J. Mol. Recognit. 12, 279-284 (1999).
The sensorgrams were double-referenced and fit to a 1:1 Langmuir with mass transport kinetic titration model in BIAevaluation Software version 4.1.1 (GE Lifesciences, Piscataway, N.J.).

[2] = target: CD3 (Homo sapiens, UniProt P07766); assay: Biacore kinetics of anti-CD3 hIgG2dA bispecifics at 37° C.; type: binding
Sequence of CD3 (P07766 23-126 limits assumed): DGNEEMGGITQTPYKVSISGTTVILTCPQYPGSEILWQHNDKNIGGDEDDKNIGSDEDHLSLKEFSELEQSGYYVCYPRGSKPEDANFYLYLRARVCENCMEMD
Sequence of CD3 (P04234 22-105 partner limits assumed): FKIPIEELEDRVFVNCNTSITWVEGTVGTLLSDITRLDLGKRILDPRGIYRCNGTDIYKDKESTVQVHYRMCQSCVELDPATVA

Sequence of hCD3 (human CD3) (P07766 23-126 limits assumed): as the sequence (P07766 23-126 limits assumed) above
Sequence of hCD3 (human CD3) (P04234 22-105 partner limits assumed): as the sequence (P04234 22-105 partner limits assumed) above

Row | Molecule | ka huCD3ed @37° C. [1] [M⁻¹ s⁻¹] | kd huCD3ed @37° C. [1] [s⁻¹] | Kd [2] [nM] | ka [2] [M⁻¹ s⁻¹] | kd [2] [s⁻¹]
1 | h2B4-VH-wt VL_TK: anti-CD3 antibody (antibody, V domains shown) VH: EVQLVESGGGLVQPGGSLRLSCAASGFTFSDYYMTWVRQAPGKGLEWVAFIRNRARGYTSDHNASVKGRFTISRDNAKNSLYLQMNSLRAEDTAVYYCARDRPSYYVLDYWGQGTTVTVSS VL: DIVMTQSPDSLAVSLGERATINCKSSQSLFNVRSRKNYLAWYQQKPGQPPKLLISWASTRESGVPDRFSGSGSGTDFTLTISSLQAEDVAVYYCKQSYDLFTFGSGTKLEIK | 380000 | 0.014 |  |  | 
2 | h2B4-VH-hnps VL_TK: anti-CD3 antibody (antibody, V domains shown) VH: EVQLVESGGGLVQPGGSLRLSCAASGFTFSDYYMTWVRQAPGKGLEWVAFIRNRARGYTSDHNPSVKGRFTISRDNAKNSLYLQMNSLRAEDTAVYYCARDRPSYYVLDYWGQGTTVTVSS VL: DIVMTQSPDSLAVSLGERATINCKSSQSLFNVRSRKNYLAWYQQKPGQPPKLLISWASTRESGVPDRFSGSGSGTDFTLTISSLQAEDVAVYYCKQSYDLFTFGSGTKLEIK | 390000 | 0.016 |  |  | 
3 | h2B4-VH-yads VL_TK: anti-CD3 antibody (antibody, V domains shown) VH: EVQLVESGGGLVQPGGSLRLSCAASGFTFSDYYMTWVRQAPGKGLEWVAFIRNRARGYTSDYADSVKGRFTISRDNAKNSLYLQMNSLRAEDTAVYYCARDRPSYYVLDYWGQGTTVTVSS VL: DIVMTQSPDSLAVSLGERATINCKSSQSLFNVRSRKNYLAWYQQKPGQPPKLLISWASTRESGVPDRFSGSGSGTDFTLTISSLQAEDVAVYYCKQSYDLFTFGSGTKLEIK | 240000 | 0.021 |  |  | 
4 | h2B4-VH-yaes VL_TK: anti-CD3 antibody (antibody, V domains shown) VH: EVQLVESGGGLVQPGGSLRLSCAASGFTFSDYYMTWVRQAPGKGLEWVAFIRNRARGYTSDYAESVKGRFTISRDNAKNSLYLQMNSLRAEDTAVYYCARDRPSYYVLDYWGQGTTVTVSS VL: DIVMTQSPDSLAVSLGERATINCKSSQSLFNVRSRKNYLAWYQQKPGQPPKLLISWASTRESGVPDRFSGSGSGTDFTLTISSLQAEDVAVYYCKQSYDLFTFGSGTKLEIK | 230000 | 0.023 |  |  | 
5 | h2B4-TK_Ep: anti-EpCam/CD3 bispecific, human IgG2dA, anti-CD3 arm h2B4-TK (h2B4-VH-wt VL_TK) (antibody, V domains shown, left off: another chain or arm of the molecule; a dimerising Fc or GST; small tags and cut ends) VH: EVQLVESGGGLVQPGGSLRLSCAASGFTFSDYYMTWVRQAPGKGLEWVAFIRNRARGYTSDHNASVKGRFTISRDNAKNSLYLQMNSLRAEDTAVYYCARDRPSYYVLDYWGQGTTVTVSS VL: DIVMTQSPDSLAVSLGERATINCKSSQSLFNVRSRKNYLAWYQQKPGQPPKLLISWASTRESGVPDRFSGSGSGTDFTLTISSLQAEDVAVYYCKQSYDLFTFGSGTKLEIK |  |  | 31 | 687000 | 0.0213
6 | h2B4-hnpsTK_Ep: anti-EpCam/CD3 bispecific, human IgG2dA, anti-CD3 arm h2B4-hnpsTK (h2B4-VH-hnps VL_TK) (antibody, V domains shown, left off: another chain or arm of the molecule; a dimerising Fc or GST; small tags and cut ends) VH: EVQLVESGGGLVQPGGSLRLSCAASGFTFSDYYMTWVRQAPGKGLEWVAFIRNRARGYTSDHNPSVKGRFTISRDNAKNSLYLQMNSLRAEDTAVYYCARDRPSYYVLDYWGQGTTVTVSS VL: DIVMTQSPDSLAVSLGERATINCKSSQSLFNVRSRKNYLAWYQQKPGQPPKLLISWASTRESGVPDRFSGSGSGTDFTLTISSLQAEDVAVYYCKQSYDLFTFGSGTKLEIK |  |  | 31.2 | 754000 | 0.0235
7 | h2B4-yaesTK_Ep: anti-EpCam/CD3 bispecific, human IgG2dA, anti-CD3 arm h2B4-yaesTK (h2B4-VH-yaes VL_TK) (antibody, V domains shown, left off: another chain or arm of the molecule; a dimerising Fc or GST; small tags and cut ends) VH: EVQLVESGGGLVQPGGSLRLSCAASGFTFSDYYMTWVRQAPGKGLEWVAFIRNRARGYTSDYAESVKGRFTISRDNAKNSLYLQMNSLRAEDTAVYYCARDRPSYYVLDYWGQGTTVTVSS VL: DIVMTQSPDSLAVSLGERATINCKSSQSLFNVRSRKNYLAWYQQKPGQPPKLLISWASTRESGVPDRFSGSGSGTDFTLTISSLQAEDVAVYYCKQSYDLFTFGSGTKLEIK |  |  | 54.4 | 474000 | 0.0258
8 | h25A8-C8_Ep (antibody, V domains shown, left off: another chain or arm of the molecule; a dimerising Fc or GST; small tags and cut ends) VH: EVQLVESGGGLVKPGGSLRLSCAASGFTFNTYAMNWVRQAPGKGLEWVGRIRSKINNYATYYAESVKGRFTISRDDSKNTLYLQMNSLKTEDTAVYYCVRHETLRSGISWFASWGQGTLVTVSS VL: QAVVTQEPSLTVSPGGTVTLTCRSSTGAVTTSNYANWVQQKPGQAPRGLIGGTNTRAPGTPARFSGSLLGGKAALTLSGAQPEDEAEYYCVLWYNNHWVFGGGTKLTVL |  |  | 25.1 | 1.2e+06 | 0.0301
9 | h25A8-B5_Ep (antibody, V domains shown, left off: another chain or arm of the molecule; a dimerising Fc or GST; small tags and cut ends) VH: EVQLVESGGGLVKPGGSLRLSCAASGFTFSTYAMNWVRQAPGKGLEWVGRIRSKINNYATYYAESVKGRFTISRDDSKNTLYLQMNSLKTEDTAVYYCVRHETLRSGISWFASWGQGTLVTVSS VL: QAVVTQEPSLTVSPGGTVTLTCRSSTGAVTTSNYANWVQQKPGQAPRGLIGGTNTRAPGTPARFSGSLLGGKAALTLSGAQPEDEAEYYCVLWYNNYWVFGGGTKLTVL |  |  | 45 | 1.29e+06 | 0.0581
10 | h25A8-B8_Ep (antibody, V domains shown, left off: another chain or arm of the molecule; a dimerising Fc or GST; small tags and cut ends) VH: EVQLVESGGGLVKPGGSLRLSCAASGFTFSTYAMNWVRQAPGKGLEWVGRIRSKINNYATYYAESVKGRFTISRDDSKNTLYLQMNSLKTEDTAVYYCVRHETLRSGISWFASWGQGTLVTVSS VL: QAVVTQEPSLTVSPGGTVTLTCRSSTGAVTTSNYANWVQQKPGQAPRGLIGGTNTRAPGTPARFSGSLLGGKAALTLSGAQPEDEAEYYCVLWYNNHWVFGGGTKLTVL |  |  | 18.7 | 1.19e+06 | 0.0222
11 | h25A8-B12_Ep: anti-EpCam/CD3 bispecific, human IgG2dA, anti-CD3 arm h25A8-B12 (antibody, V domains shown, left off: another chain or arm of the molecule; a dimerising Fc or GST; small tags and cut ends, anti-EpCam/CD3 bispecific, human IgG2dA, anti-CD3 arm h25A8-B12) VH: EVQLVESGGGLVKPGGSLRLSCAASGFTFSTYAMNWVRQAPGKGLEWVGRIRSKINNYATYYAESVKGRFTISRDDSKNTLYLQMNSLKTEDTAVYYCVRHETLRSGISWFASWGQGTLVTVSS VL: QAVVTQEPSLTVSPGGTVTLTCRASTGAVTTSNYANWVQQKPGQAPRGLIGGTNTRAPGTPARFSGSLLGGKAALTLSGAQPEDEAEYYCVLWYNNHWVFGGGTKLTVL |  |  | 21 | 1.15e+06 | 0.0241
12 | h25A8-B13_Ep: anti-EpCam/CD3 bispecific, human IgG2dA, anti-CD3 arm h25A8-B13 (antibody, V domains shown, left off: another chain or arm of the molecule; a dimerising Fc or GST; small tags and cut ends, anti-EpCam/CD3 bispecific, human IgG2dA, anti-CD3 arm h25A8-B13) VH: EVQLVESGGGLVKPGGSLRLSCAASGFTFSTYAMNWVRQAPGKGLEWVGRIRSKINNYATYYAESVKGRFTISRDDSKNTLYLQMNSLKTEDTAVYYCVRHETLRSGISWFASWGQGTLVTVSS VL: QAVVTQEPSLTVSPGGTVTLTCRTSTGAVTTSNYANWVQQKPGQAPRGLIGGTNTRAPGTPARFSGSLLGGKAALTLSGAQPEDEAEYYCVLWYNNHWVFGGGTKLTVL |  |  | 18.3 | 1.2e+06 | 0.0219
